How the values were obtained:
Assay in all cases: SPR, captured hENG-hFc, soluble BMP9; '-' = Binding undetectable
hENG(438-586)-hFc = target: T1, hENG(438-586)-hFc (human, UniProt P17813 438-586)
T1 construct: HEK 293, purified; not shown: linker and human IgG1 Fc domain
T1 sequence: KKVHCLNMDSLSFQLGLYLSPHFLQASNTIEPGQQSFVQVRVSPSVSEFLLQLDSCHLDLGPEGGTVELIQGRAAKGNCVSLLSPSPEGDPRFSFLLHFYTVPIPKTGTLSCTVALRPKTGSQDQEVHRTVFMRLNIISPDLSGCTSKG
Protocol: (§1) SPR methodology was used to screen these hENG-hFc protein variants for high-affinity binding to human BMP9 and BMP10. In these experiments, captured hENG-hFc proteins were exposed to soluble BMP9 or BMP10 at 100 nM each.

hENG(458-586)-hFc = target: T2, hENG(458-586)-hFc (human, UniProt P17813 458-586)
T2 construct: Expressed in COS cells, not purified; not shown: linker and human IgG1 Fc domain
T2 sequence: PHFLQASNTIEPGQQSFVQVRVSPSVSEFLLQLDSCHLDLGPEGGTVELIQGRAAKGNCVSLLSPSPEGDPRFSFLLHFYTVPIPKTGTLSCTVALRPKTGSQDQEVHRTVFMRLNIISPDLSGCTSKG
Protocol: as §1

hENG(129-346)-hFc = target: T3, hENG(129-346)-hFc (human, UniProt P17813 129-346)
T3 construct: HEK 293, purified; not shown: linker and human IgG1 Fc domain
T3 sequence: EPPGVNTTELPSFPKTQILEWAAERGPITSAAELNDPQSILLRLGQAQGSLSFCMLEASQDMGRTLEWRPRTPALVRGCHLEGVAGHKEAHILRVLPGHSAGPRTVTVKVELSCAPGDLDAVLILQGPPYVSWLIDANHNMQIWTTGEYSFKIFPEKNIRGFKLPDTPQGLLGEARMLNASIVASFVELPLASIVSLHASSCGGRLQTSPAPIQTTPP
Protocol: as §1

hENG(360-581)-hFc = target: T4, hENG(360-581)-hFc (human, UniProt P17813 360-581)
T4 construct: HEK 293, purified; not shown: linker and human IgG1 Fc domain
T4 sequence: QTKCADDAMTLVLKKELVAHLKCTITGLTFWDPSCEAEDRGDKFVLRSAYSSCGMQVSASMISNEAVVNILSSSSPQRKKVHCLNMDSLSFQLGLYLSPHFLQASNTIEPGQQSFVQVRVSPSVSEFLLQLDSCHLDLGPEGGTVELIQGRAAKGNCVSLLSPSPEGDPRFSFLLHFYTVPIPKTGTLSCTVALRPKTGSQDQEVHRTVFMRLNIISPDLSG
Protocol: as §1

hENG(26-329)-hFc = target: T5, hENG(26-329)-hFc (human, UniProt P17813 26-329)
T5 construct: HEK 293, purified; not shown: linker and human IgG1 Fc domain
T5 sequence: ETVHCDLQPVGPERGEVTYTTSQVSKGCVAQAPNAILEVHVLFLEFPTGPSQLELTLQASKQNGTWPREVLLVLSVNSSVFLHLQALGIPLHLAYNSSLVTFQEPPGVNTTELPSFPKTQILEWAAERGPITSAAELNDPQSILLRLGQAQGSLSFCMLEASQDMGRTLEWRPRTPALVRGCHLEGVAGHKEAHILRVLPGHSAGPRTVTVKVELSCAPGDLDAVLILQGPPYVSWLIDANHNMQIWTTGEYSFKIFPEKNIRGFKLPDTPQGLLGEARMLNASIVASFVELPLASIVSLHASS
Protocol: as §1

hENG(61-346)-hFc = target: T6, hENG(61-346)-hFc (human, UniProt P17813 61-346)
T6 construct: HEK 293, purified; not shown: linker and human IgG1 Fc domain
T6 sequence: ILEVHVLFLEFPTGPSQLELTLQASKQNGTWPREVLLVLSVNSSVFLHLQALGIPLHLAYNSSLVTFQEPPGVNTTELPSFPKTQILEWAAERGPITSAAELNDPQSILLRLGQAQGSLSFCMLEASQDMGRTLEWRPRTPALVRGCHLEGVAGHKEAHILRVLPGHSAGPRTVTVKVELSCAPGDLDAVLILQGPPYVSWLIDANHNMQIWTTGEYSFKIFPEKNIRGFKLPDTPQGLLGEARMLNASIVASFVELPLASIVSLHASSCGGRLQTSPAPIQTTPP
Protocol: as §1

hENG(458-581)-hFc = target: T7, hENG(458-581)-hFc (human, UniProt P17813 458-581)
T7 construct: Expressed in COS cells, not purified; not shown: linker and human IgG1 Fc domain
T7 sequence: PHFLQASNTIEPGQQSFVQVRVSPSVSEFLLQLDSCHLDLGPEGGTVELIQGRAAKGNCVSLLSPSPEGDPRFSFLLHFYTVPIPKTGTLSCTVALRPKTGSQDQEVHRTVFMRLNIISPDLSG
Protocol: as §1

hENG(360-586)-hFc = target: T8, hENG(360-586)-hFc (human, UniProt P17813 360-586)
T8 construct: HEK 293, purified; not shown: linker and human IgG1 Fc domain
T8 sequence: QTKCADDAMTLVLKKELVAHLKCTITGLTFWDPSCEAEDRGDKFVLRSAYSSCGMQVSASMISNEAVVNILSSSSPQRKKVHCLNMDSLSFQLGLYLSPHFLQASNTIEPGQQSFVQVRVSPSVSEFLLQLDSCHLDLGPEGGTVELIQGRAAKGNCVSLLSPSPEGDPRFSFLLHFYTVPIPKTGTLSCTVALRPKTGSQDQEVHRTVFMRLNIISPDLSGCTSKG
Protocol: as §1

hENG(133-346)-hFc = target: T9, hENG(133-346)-hFc (human, UniProt P17813 133-346)
T9 construct: HEK 293, purified; not shown: linker and human IgG1 Fc domain
T9 sequence: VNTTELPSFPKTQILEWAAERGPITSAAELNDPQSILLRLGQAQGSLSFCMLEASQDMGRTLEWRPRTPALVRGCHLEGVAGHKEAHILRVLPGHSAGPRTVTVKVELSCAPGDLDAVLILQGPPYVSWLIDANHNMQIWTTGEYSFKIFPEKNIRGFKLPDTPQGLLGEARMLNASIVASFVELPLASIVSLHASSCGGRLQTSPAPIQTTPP
Protocol: as §1

binding result (hENG(438-586)-hFc): no binding (tested: 100 nM) | binding result (hENG(458-586)-hFc): no binding (tested: 100 nM) | binding result (hENG(129-346)-hFc): no binding (tested: 100 nM) | binding result (hENG(360-581)-hFc): no binding (tested: 100 nM) | binding result (hENG(26-329)-hFc): no binding (tested: 100 nM) | binding result (hENG(61-346)-hFc): no binding (tested: 100 nM) | binding result (hENG(458-581)-hFc): no binding (tested: 100 nM) | binding result (hENG(360-586)-hFc): no binding (tested: 100 nM) | binding result (hENG(133-346)-hFc): no binding (tested: 100 nM)
B1: BMP9 (ligand, human, UniProt Q9UK05 320-429, looked up)
chain: SAGAGSHCQKTSLRVNFEDIGWDSWIIAPKEYEAYECKGGCFFPLADDVTPTKHAIVQTLVHLKFPTKVGKACCVPTKLSPISVLYKDDMGVPTLKYHYEGMSVAECGCR
notes: also called hBMP-9; hBMP9

From patent publication US20200087367A1 (ACCELERON PHARMA, published 2020)
